B1: HDAC6 (parent)
chain: YVHHQALLDVKNIAHQNKFGEDMP

Variants of: B1
Test: protein stability index of a GFP-peptide fusion (GPS, HEK-293T) (PSI 1-6); higher = more stable
Conditions: c terminus: a fixed tail appended
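Further: lentivirally expressed fusions sorted by FACS into six bins by GFP to DsRed ratio, PSI derived from sequencing read proportions per bin multiplied by bin number.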

Protein stability index of substitutions, site by site:
N12: A 2; C 1.42; V 1.54; I 2.4; K 2.18; H 1.72; L 1.93; T 2.09; F 2.65; R 2.36; Y 3.4; G 2.71; Q 1.57; W 2.64; P 2.12; D 1.67
V2: P 3; I 1.81; T 2.95; S 3.56; K 4.15; M 3.17; W 2.21; G 3.43; C 2.02; Y 2.98; A 3.16; F 2.44; D 4.33; L 2.56; H 1.65; Q 2.77
H15: D 2.2; W 2.85; G 1.51; F 1.51; N 1.63; L 1.91; E 2.53; C 1.7; Q 2.08; A 2.57; P 2.37; Y 1.43; R 2.16; T 1.59; K 2.35; M 2.12
L8: Y 2.32; K 2.31; Q 2.4; R 2.06; H 2.72; W 1.81; I 1.65; S 2.39; D 2.71; G 2.09; N 2.71; T 2.44; M 1.95; V 1.75; P 2
D22: I 2.21; G 1.64; K 2.09; C 2.63; Y 1.74; T 1.86; P 2.21; F 1.57; S 2.48; W 2.14; E 1.69; H 2.4; R 1.73
H4: K 1.78; R 1.74; P 3.02; F 2.98; Q 2.61; C 1.7; T 1.47; Y 1.78; S 1.64; D 2.64; M 1.83; N 1.65; I 1.97
K11: L 1.27; Q 1.4; E 2.24; W 3.04; N 1.98; D 2.18; G 1.95; M 1.72; R 2.08; T 2.25; C 1.54; Y 2.77; F 2.13; H 2.21; I 2.09
H3: V 2.46; G 2.03; A 1.55; S 2; R 1.39; D 2.14; I 1.66; F 1.48; K 2.18; P 1.65; E 2.81; Q 1.78; C 1.89; L 2; T 1.82
P24: W 2.05; S 2.25; G 2.36; M 1.96; E 1.77; T 2.17; N 2.19; R 1.56; I 2.06; Y 1.51; V 1.57; L 2.23; F 1.49; A 1.46; K 2.25
E21: K 1.57; S 2.22; N 2; M 1.71; W 2.02; A 2.01; P 1.4; H 1.46; I 1.57; V 1.61
N17: T 2.47; H 1.72; D 1.9; K 1.97; E 1.91; R 1.89; C 1.87; Q 1.85; P 2.12; L 1.68; Y 1.57; F 1.38
G20: N 1.96; R 1.56; Y 2.58; W 2.41; P 1.96; L 2.19; I 1.88; Q 2.03; C 1.83; S 1.82; K 2.14; E 2.26
A14: Y 1.74; I 2.12; E 2.3; H 1.74; C 3.38; L 1.9; N 2.26; T 1.82; G 1.76; V 2.59; R 2.04; F 1.52; D 2
A6: Q 1.86; V 1.86; H 1.86; M 1.96; T 1.97; L 1.58; W 2.7; D 2.22; R 2.07; F 1.4; C 1.71; N 1.84
K18: V 1.74; N 2.26; Y 2.2; I 2.15; F 1.9; T 2.43; M 1.94; G 2.58; P 2.35; W 1.9; A 2.23; E 2.37; C 1.37; L 1.73; D 1.7; S 1.49; Q 1.95
V10: N 2.05; R 1.85; K 2.21; Y 1.62; M 1.73; F 1.98; S 1.84; G 2.02; A 2.33; E 2.5; D 2.74; P 2.15; C 2; I 1.22
Y1: S 4.29; C 3.29; T 3.75; A 4.15; E 4.05; I 3.21; K 4.06; W 2.98; R 3.59; F 1.94; M 3.49; Q 4.14; G 4.19
I13: Y 1.95; H 1.95; E 2.27; Q 1.92; C 1.81; F 1.94; T 1.9; M 2.47; K 2; G 2.39; A 2.18; R 1.96; L 1.77; W 2.16; N 1.98
Q16: T 1.91; S 1.87; V 1.48; W 2; K 1.49; A 1.63; P 2.3; M 2.28; E 2.12; L 2.21; F 1.59; G 1.58; N 2.15; R 1.8
D9: M 1.76; W 3.58; L 2.25; G 1.85; R 1.65; Y 2.35; T 1.95; S 2.25; I 3.33; N 2.66; F 2.23; K 2.67; C 2.38; H 2.56; A 3.21
Q5: S 1.76; A 2.4; N 1.79; I 1.88; V 1.85; C 1.36; R 2; E 2.16; H 2.19; M 2.21; P 1.71; L 1.75; D 2.08; W 3.05
L7: P 2.73; D 2.61; G 2.33; W 2.77; R 1.8; I 1.83; Q 2.14; E 2.88; C 1.97; S 2.31; H 2.25; A 1.89
F19: N 2.05; W 1.73; Q 2.35; E 2.45; P 2.83; L 2.09; I 1.76; C 1.78; H 2.53; R 1.88; G 2.43; D 2.48
M23: N 1.88; P 2.18; K 2.26; S 2.13; T 2.63; Q 1.68; R 1.97; W 1.49; H 1.93; I 2.39; V 1.74; D 2.17; F 2.23; A 1.94; C 1.95

Reference: the supplement of paper PMC10567573
